Experimental data reported in PMC9482650, “Quantitative fragmentomics allow affinity mapping of interactomes” (Nature Communications, 2022).

T1: LRRC7, Q96NW7
T1 sequence (Q96NW7 1440-1537, limits assumed, looked up): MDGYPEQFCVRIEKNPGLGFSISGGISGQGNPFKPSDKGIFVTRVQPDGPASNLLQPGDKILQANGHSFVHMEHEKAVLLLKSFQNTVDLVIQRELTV

T2: GRIP1_3, Q9Y3R0
T2 sequence (Q9Y3R0 247-346, limits assumed, looked up): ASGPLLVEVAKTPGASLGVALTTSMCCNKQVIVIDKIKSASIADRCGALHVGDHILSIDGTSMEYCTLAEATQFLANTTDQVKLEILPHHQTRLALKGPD

T3: APBA1_2, Q02410
T3 sequence (Q02410 742-832, limits assumed, looked up): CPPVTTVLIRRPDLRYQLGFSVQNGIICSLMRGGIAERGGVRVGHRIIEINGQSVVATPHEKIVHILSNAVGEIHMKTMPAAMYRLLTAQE

T4: HTRA3, P83110
T4 sequence (P83110 354-453, limits assumed, looked up): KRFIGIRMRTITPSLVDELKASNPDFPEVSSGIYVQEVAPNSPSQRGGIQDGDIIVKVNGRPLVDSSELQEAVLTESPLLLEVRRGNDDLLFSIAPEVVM

T5: PDZD7_3, Q9H5P4
T5 sequence (Q9H5P4 857-944, limits assumed, looked up): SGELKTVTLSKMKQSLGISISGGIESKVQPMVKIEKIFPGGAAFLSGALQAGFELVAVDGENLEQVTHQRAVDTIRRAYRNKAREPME

T6: APBA2_1, Q99767
T6 sequence (Q99767 563-664, limits assumed, looked up): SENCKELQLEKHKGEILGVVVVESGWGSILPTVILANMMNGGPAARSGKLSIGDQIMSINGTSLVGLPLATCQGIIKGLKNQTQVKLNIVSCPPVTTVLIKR

T7: NHERF3_3, Q5T2W1
T7 sequence (Q5T2W1 238-333, limits assumed, looked up): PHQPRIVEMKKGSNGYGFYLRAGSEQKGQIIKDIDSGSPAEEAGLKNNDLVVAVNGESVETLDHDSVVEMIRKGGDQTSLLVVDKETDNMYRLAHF

T8: APBA3_1, O96018
T8 sequence (O96018 389-490, limits assumed, looked up): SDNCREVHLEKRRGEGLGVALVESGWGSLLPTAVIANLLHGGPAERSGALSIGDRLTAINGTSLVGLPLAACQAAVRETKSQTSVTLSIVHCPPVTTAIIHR

T9: DVL3, Q92997
T9 sequence (Q92997 244-331, limits assumed, looked up): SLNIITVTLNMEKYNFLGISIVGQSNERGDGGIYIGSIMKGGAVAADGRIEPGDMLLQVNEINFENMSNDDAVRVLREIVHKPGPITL

T10: PDZD2_2, O15018
T10 sequence (O15018 329-429, limits assumed, looked up): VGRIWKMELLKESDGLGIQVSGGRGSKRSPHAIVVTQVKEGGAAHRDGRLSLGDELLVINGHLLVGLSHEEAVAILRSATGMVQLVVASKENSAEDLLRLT

T11: DFNB31_3, Q9P202
T11 sequence (Q9P202 811-907, limits assumed, looked up): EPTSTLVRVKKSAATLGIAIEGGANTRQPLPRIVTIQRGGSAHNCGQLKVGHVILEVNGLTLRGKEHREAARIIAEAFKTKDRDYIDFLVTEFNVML

T12: NHERF3_4, Q5T2W1
T12 sequence (Q5T2W1 373-468, limits assumed, looked up): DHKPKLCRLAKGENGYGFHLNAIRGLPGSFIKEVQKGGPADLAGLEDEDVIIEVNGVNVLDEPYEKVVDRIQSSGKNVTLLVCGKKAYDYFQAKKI

T13: TJP3_3, O95049
T13 sequence (O95049 375-456, limits assumed, looked up): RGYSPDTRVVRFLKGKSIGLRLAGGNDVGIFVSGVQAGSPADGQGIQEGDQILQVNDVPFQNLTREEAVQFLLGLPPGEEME

T14: LNX2_3, Q8N448
T14 sequence (Q8N448 463-564, limits assumed, looked up): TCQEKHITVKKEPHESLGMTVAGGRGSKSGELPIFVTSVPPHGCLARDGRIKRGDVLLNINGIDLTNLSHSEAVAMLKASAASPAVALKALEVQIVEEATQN


Columns and labels:
Assay in all cases: holdup assay
Design in all cases: key: below the threshold = too weak to quantify, mostly under pKd 3.1 to 4
Conditions in all cases: plain residues with an end cap or a label only (N-terminal biotin on a linker: ado-ado)
MAST1, Q9Y2H9 = biological target: MAST1, Q9Y2H9
Sequence of MAST1, Q9Y2H9 (Q9Y2H9 962-1065): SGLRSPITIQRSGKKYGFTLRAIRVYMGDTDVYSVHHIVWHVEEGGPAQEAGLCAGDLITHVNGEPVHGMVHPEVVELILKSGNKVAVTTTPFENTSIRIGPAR

LRRC7, Q96NW7 = biological target: T1, LRRC7, Q96NW7
GRIP2_7, Q9C0E4 = biological target: GRIP2_7, Q9C0E4
Sequence of GRIP2_7, Q9C0E4 (Q9C0E4 934-1023): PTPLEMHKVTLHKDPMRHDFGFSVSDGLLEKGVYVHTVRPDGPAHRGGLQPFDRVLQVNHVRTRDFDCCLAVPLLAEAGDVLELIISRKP

GRIP1_3, Q9Y3R0 = biological target: T2, GRIP1_3, Q9Y3R0
APBA1_2, Q02410 = biological target: T3, APBA1_2, Q02410
HTRA3, P83110 = biological target: T4, HTRA3, P83110
GIPC2, Q8TF65 = biological target: GIPC2, Q8TF65
Sequence of GIPC2, Q8TF65 (Q8TF65 112-203): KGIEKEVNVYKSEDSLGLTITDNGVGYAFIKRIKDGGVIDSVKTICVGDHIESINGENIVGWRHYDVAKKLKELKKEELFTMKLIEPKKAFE

LNX1_1, Q8TBB1 = biological target: LNX1_1, Q8TBB1
Sequence of LNX1_1, Q8TBB1 (Q8TBB1 261-371): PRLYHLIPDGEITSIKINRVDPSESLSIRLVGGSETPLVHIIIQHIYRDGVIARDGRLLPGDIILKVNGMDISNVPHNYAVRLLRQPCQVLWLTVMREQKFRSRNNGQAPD

Inadl_5, Q8NI35 = biological target: Inadl_5, Q8NI35
Sequence of Inadl_5, Q8NI35 (Q8NI35 673-780): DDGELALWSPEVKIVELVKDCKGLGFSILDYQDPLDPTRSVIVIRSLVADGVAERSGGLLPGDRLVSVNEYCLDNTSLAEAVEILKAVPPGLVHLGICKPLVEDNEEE

PDZD7_3, Q9H5P4 = biological target: T5, PDZD7_3, Q9H5P4
APBA2_1, Q99767 = biological target: T6, APBA2_1, Q99767
FRMPD2_3, Q68DX3 = biological target: FRMPD2_3, Q68DX3
Sequence of FRMPD2_3, Q68DX3 (Q68DX3 1073-1166): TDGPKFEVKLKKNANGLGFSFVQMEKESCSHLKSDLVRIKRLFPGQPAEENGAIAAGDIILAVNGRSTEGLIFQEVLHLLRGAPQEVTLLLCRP

NHERF3_3, Q5T2W1 = biological target: T7, NHERF3_3, Q5T2W1
APBA3_1, O96018 = biological target: T8, APBA3_1, O96018
Inadl_9, Q8NI35 = biological target: Inadl_9, Q8NI35
Sequence of Inadl_9, Q8NI35 (Q8NI35 1530-1615): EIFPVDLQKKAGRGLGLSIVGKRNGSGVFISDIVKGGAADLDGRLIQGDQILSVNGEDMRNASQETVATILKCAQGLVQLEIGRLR

DVL3, Q92997 = biological target: T9, DVL3, Q92997
PDZD2_2, O15018 = biological target: T10, PDZD2_2, O15018
DLG2_2, Q15700 = biological target: DLG2_2, Q15700
Sequence of DLG2_2, Q15700 (Q15700 189-283): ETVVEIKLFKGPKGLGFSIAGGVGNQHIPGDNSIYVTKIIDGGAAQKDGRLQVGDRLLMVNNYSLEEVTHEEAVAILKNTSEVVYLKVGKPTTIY

DFNB31_3, Q9P202 = biological target: T11, DFNB31_3, Q9P202
TJP1_3, Q07157 = biological target: TJP1_3, Q07157
Sequence of TJP1_3, Q07157 (Q07157 416-512): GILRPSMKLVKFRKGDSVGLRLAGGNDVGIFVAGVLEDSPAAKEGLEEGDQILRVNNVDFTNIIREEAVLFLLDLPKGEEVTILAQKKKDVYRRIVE

NHERF3_4, Q5T2W1 = biological target: T12, NHERF3_4, Q5T2W1
TJP3_3, O95049 = biological target: T13, TJP3_3, O95049
IL16_3, Q14005 = biological target: IL16_3, Q14005
Sequence of IL16_3, Q14005 (Q14005 1107-1207): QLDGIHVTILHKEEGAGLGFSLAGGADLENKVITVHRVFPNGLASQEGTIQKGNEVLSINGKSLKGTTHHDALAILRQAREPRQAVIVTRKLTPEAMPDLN

LNX2_3, Q8N448 = biological target: T14, LNX2_3, Q8N448

Row | pKd (MAST1, Q9Y2H9) | pKd (LRRC7, Q96NW7) | pKd (GRIP2_7, Q9C0E4) | pKd (GRIP1_3, Q9Y3R0) | pKd (APBA1_2, Q02410) | pKd (HTRA3, P83110) | pKd (GIPC2, Q8TF65) | pKd (LNX1_1, Q8TBB1) | pKd (Inadl_5, Q8NI35) | pKd (PDZD7_3, Q9H5P4) | pKd (APBA2_1, Q99767) | pKd (FRMPD2_3, Q68DX3) | pKd (NHERF3_3, Q5T2W1) | pKd (APBA3_1, O96018) | pKd (Inadl_9, Q8NI35) | pKd (DVL3, Q92997) | pKd (PDZD2_2, O15018) | pKd (DLG2_2, Q15700) | pKd (DFNB31_3, Q9P202) | pKd (TJP1_3, Q07157) | Binder | also measured
1 | below the threshold | below the threshold | below the threshold | below the threshold | 3.53 | below the threshold | 3.6 | 4.23 | 3.58 | 4.63 | below the threshold | below the threshold | below the threshold | below the threshold | 3.53 | below the threshold | 4.25 | 4.95 | below the threshold | below the threshold | PPYRHRNTVV [ERBB4, Q15303] | pKd (NHERF3_4, Q5T2W1): below the threshold; pKd (TJP3_3, O95049): below the threshold; pKd (IL16_3, Q14005): below the threshold; pKd (LNX2_3, Q8N448): below the threshold
2 | 4.96 | 3.84 | below the threshold | below the threshold | 3.75 | 4.17 | below the threshold | below the threshold | below the threshold | below the threshold | below the threshold | below the threshold | below the threshold | below the threshold | below the threshold | 3.65 | below the threshold | below the threshold | below the threshold | below the threshold | CLREWCDAFL [BANF1, O75531] | pKd (NHERF3_4, Q5T2W1): 3.62; pKd (TJP3_3, O95049): 3.86; pKd (IL16_3, Q14005): below the threshold; pKd (LNX2_3, Q8N448): below the threshold
3 | 4.65 | below the threshold | below the threshold | below the threshold | below the threshold | below the threshold | below the threshold | below the threshold | below the threshold | 4.09 | below the threshold | below the threshold | below the threshold | below the threshold | below the threshold | below the threshold | 3.74 | below the threshold | below the threshold | below the threshold | SARSRLSSNL [HCN2, Q9UL51] | pKd (NHERF3_4, Q5T2W1): below the threshold; pKd (TJP3_3, O95049): below the threshold; pKd (IL16_3, Q14005): below the threshold; pKd (LNX2_3, Q8N448): below the threshold
4 | 4.19 | below the threshold | below the threshold | below the threshold | 3.64 | below the threshold | below the threshold | 4.01 | below the threshold | 4.4 | below the threshold | below the threshold | below the threshold | below the threshold | below the threshold | below the threshold | 4.72 | 3.58 | below the threshold | below the threshold | LGRSTPQSEV [DGKH, Q86XP1] | pKd (NHERF3_4, Q5T2W1): below the threshold; pKd (TJP3_3, O95049): below the threshold; pKd (IL16_3, Q14005): below the threshold; pKd (LNX2_3, Q8N448): below the threshold
5 | 4.54 | 4.05 | below the threshold | below the threshold | 3.75 | below the threshold | 3.65 | 4.34 | below the threshold | 4.32 | below the threshold | below the threshold | below the threshold | below the threshold | below the threshold | below the threshold | 4.98 | 5.11 | below the threshold | below the threshold | RRISSLESEV [GRIN2C, Q14957] | pKd (NHERF3_4, Q5T2W1): 3.66; pKd (TJP3_3, O95049): below the threshold; pKd (IL16_3, Q14005): below the threshold; pKd (LNX2_3, Q8N448): below the threshold
6 | 3.65 | below the threshold | below the threshold | below the threshold | 3.58 | below the threshold | below the threshold | below the threshold | below the threshold | below the threshold | below the threshold | below the threshold | below the threshold | below the threshold | below the threshold | below the threshold | 3.7 | below the threshold | below the threshold | below the threshold | GSGAVEMESV [AQP6, Q13520] | pKd (NHERF3_4, Q5T2W1): below the threshold; pKd (TJP3_3, O95049): below the threshold; pKd (IL16_3, Q14005): below the threshold; pKd (LNX2_3, Q8N448): below the threshold
